How the values were obtained:
[1] = molecular target: Human TNFa (recombinant) (human) (UniProt P01375); test: SPR (Biacore), average of three BYL batches, TNFa as analyte
[2] = molecular target: huCD64/human FcRI (R&D Systems 1257FC) (human) (UniProt P12314); test: SPR (Biacore), average of three BYL batches, CD64 as analyte
[3] = molecular target: huCD64/human FcRI (R&D Systems 1257FC) (human) (UniProt P12314); test: SPR (Biacore), antibody captured on Protein A CM5 chip, CD64 as analyte
[4] = molecular target: Human TNFa (recombinant) (human) (UniProt P01375); test: SPR (Biacore), antibody captured on Protein A CM5 chip, TNFa as analyte

Substance	Kd [1] [nM]	Kd [2] [nM]	Kd [3] [nM]	koff [3] [s⁻¹]	kon [3] [M⁻¹ s⁻¹]	Kd [4] [nM]	koff [4] [s⁻¹]	kon [4] [M⁻¹ s⁻¹]
BYL-mAb (adalimumab produced in BYL, average of the three batches) (antibody)	0.134	0.353						
Humira CF DB3 (adalimumab produced in BYL/ALiCE, batch DB3) (antibody)			0.367	0.000252	686000	0.122	5.83e-05	478000

More lines, now with the values ahead:

Kd [1] [nM]	Kd [2] [nM]	Kd [3] [nM]	koff [3] [s⁻¹]	kon [3] [M⁻¹ s⁻¹]	Kd [4] [nM]	koff [4] [s⁻¹]	kon [4] [M⁻¹ s⁻¹]	Substance
		0.158	0.000152	959000	0.185	8.37e-05	453000	Reference IgG Adalinumab (Humira) (ABIN5668145), commercial adalimumab reference product expressed from CHO cells (antibody)
		0.346						Humira CF DAK (adalimumab produced in BYL/ALiCE, batch DAK) (antibody)
		0.346						Humira CF CHJ (adalimumab produced in BYL/ALiCE, batch CHJ) (antibody)

Reference: patent US20260072038A1
